For this experiment, the target named is recombinant Xenopus TACC3/maskin (TACC3-WT), full length, His6-tagged (Xenopus laevis) (UniProt Q9PTG8). Description: sucrose density gradient centrifugation + SEC.
Chain of recombinant Xenopus TACC3/maskin (TACC3-WT), full length, His6-tagged (Xenopus laevis) (Q9PTG8 whole entry): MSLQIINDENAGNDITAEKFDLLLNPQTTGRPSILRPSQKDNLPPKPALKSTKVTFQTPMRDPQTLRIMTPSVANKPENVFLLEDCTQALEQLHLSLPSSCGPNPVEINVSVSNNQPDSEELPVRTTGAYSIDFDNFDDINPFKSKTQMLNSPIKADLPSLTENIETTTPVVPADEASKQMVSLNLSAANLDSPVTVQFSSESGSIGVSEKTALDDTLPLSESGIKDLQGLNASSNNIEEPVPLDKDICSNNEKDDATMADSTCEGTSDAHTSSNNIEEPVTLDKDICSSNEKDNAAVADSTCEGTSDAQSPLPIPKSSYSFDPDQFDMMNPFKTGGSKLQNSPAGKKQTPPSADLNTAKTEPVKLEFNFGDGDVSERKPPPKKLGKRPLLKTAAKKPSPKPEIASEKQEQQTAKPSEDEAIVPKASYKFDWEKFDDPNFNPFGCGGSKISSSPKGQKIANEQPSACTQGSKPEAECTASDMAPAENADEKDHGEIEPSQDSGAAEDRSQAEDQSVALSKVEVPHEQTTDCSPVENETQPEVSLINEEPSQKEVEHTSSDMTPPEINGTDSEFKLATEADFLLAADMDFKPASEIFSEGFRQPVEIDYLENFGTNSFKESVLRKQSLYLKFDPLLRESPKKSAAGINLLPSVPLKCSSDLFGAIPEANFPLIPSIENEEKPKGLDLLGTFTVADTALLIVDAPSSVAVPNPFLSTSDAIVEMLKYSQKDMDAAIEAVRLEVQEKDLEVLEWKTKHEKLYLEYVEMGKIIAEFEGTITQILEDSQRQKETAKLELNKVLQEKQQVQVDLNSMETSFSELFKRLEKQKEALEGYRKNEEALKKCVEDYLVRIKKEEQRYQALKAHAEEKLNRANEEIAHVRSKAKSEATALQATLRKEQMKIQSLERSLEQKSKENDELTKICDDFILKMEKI

In general, stoichiometry N refers to a count of units in the complex or per binding partner. As for recombinant XMAP215, Q9PT63 1-2065, the stoichiometry N was 1.

The record behind these values is article PMC2171544.
